Source: paper PMC9482650, “Quantitative fragmentomics allow affinity mapping of interactomes” (Nature Communications, 2022)

T1: LIN7A, O14910
T1 sequence (O14910 103-200, limits assumed, looked up): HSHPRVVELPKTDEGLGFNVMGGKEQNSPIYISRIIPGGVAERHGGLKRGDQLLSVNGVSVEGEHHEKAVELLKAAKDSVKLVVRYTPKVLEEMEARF

T2: LNX2_2, Q8N448
T2 sequence (Q8N448 334-432, limits assumed, looked up): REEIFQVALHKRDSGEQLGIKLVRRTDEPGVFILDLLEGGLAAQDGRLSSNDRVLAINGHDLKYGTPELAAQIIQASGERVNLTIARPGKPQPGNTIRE

T3: NHERF3_4, Q5T2W1
T3 sequence (Q5T2W1 373-468, limits assumed, looked up): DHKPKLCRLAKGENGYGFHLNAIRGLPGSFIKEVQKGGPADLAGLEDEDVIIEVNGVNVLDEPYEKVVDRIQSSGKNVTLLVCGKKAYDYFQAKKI

T4: HTRA4, P83105
T4 sequence (P83105 378-476, limits assumed, looked up): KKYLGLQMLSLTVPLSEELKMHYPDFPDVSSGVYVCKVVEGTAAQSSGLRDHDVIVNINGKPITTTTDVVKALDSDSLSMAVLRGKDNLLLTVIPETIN

T5: TX1BP3, O14907
T5 sequence (O14907 10-122, limits assumed, looked up): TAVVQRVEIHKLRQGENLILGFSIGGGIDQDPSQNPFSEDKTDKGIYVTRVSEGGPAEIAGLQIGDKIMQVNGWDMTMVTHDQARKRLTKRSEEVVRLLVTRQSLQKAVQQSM

T6: MPP2, Q14168
T6 sequence (Q14168 180-250, limits assumed, looked up): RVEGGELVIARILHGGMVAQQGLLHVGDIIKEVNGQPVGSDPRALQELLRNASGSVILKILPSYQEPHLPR

T7: GRIP1_7, Q9Y3R0
T7 sequence (Q9Y3R0 999-1096, limits assumed, looked up): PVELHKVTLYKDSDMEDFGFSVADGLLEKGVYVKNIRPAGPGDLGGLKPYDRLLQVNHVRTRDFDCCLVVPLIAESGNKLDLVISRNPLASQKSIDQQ

T8: PCLO, Q9Y6V0
T8 sequence (Q9Y6V0 4491-4600, limits assumed, looked up): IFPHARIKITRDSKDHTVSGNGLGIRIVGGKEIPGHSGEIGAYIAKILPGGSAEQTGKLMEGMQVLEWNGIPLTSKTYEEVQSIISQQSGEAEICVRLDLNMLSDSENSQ

T9: DFNB31_2, Q9P202
T9 sequence (Q9P202 274-371, limits assumed, looked up): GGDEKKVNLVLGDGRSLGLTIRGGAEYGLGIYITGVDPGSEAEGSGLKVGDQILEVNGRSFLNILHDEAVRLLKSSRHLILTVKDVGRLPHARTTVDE

T10: APBA2_2, Q99767
T10 sequence (Q99767 654-744, limits assumed, looked up): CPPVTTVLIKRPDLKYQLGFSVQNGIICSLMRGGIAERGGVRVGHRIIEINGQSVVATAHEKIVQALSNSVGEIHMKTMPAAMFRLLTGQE

T11: MPDZ_10, O75970
T11 sequence (O75970 1624-1722, limits assumed, looked up): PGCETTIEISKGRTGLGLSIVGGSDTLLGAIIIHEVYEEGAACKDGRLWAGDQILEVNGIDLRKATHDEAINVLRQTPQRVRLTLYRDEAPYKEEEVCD

T12: RADIL, Q96JH8
T12 sequence (Q96JH8 971-1071, limits assumed, looked up): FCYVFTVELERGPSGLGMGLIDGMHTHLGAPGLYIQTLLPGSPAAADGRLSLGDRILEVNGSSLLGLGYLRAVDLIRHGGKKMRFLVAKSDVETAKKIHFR


biological target: MAGI1_1, Q96QZ7; assay: holdup assay; parameters: key: below the threshold = too weak to quantify, mostly under pKd 3.1 to 4; conditions: plain residues with an end cap or a label only (N-terminal biotin on a linker: ado-ado)
Sequence (Q96QZ7 1-106): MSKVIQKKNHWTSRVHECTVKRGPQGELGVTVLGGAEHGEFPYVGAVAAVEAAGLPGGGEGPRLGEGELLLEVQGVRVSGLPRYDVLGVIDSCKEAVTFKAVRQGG

pKd | Binder
below the threshold | PEKVSNTTVV [IGSF5, Q9NSI5]

biological target: T1, LIN7A, O14910; assay: holdup assay; parameters: key: below the threshold = too weak to quantify, mostly under pKd 3.1 to 4; conditions: plain residues with an end cap or a label only (N-terminal biotin on a linker: ado-ado)

pKd | Binder
below the threshold | PEKVSNTTVV [IGSF5, Q9NSI5]

biological target: T2, LNX2_2, Q8N448; assay: holdup assay; parameters: key: below the threshold = too weak to quantify, mostly under pKd 3.1 to 4; conditions: plain residues with an end cap or a label only (N-terminal biotin on a linker: ado-ado)

pKd | Binder
5.14 | PEKVSNTTVV [IGSF5, Q9NSI5]

biological target: T3, NHERF3_4, Q5T2W1; assay: holdup assay; parameters: key: below the threshold = too weak to quantify, mostly under pKd 3.1 to 4; conditions: plain residues with an end cap or a label only (N-terminal biotin on a linker: ado-ado)

pKd | Binder
below the threshold | PEKVSNTTVV [IGSF5, Q9NSI5]

biological target: FRMPD2_2, Q68DX3; assay: holdup assay; parameters: key: below the threshold = too weak to quantify, mostly under pKd 3.1 to 4; conditions: plain residues with an end cap or a label only (N-terminal biotin on a linker: ado-ado)
Sequence (Q68DX3 944-1038): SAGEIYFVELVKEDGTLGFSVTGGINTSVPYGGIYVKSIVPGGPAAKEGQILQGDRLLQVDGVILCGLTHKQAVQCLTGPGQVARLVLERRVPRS

pKd | Binder
below the threshold | PEKVSNTTVV [IGSF5, Q9NSI5]

biological target: T4, HTRA4, P83105; assay: holdup assay; parameters: key: below the threshold = too weak to quantify, mostly under pKd 3.1 to 4; conditions: plain residues with an end cap or a label only (N-terminal biotin on a linker: ado-ado)

pKd | Binder
below the threshold | PEKVSNTTVV [IGSF5, Q9NSI5]

biological target: T5, TX1BP3, O14907; assay: holdup assay; parameters: key: below the threshold = too weak to quantify, mostly under pKd 3.1 to 4; conditions: plain residues with an end cap or a label only (N-terminal biotin on a linker: ado-ado)

pKd | Binder
below the threshold | PEKVSNTTVV [IGSF5, Q9NSI5]

biological target: TJP1_2, Q07157; assay: holdup assay; parameters: key: below the threshold = too weak to quantify, mostly under pKd 3.1 to 4; conditions: plain residues with an end cap or a label only (N-terminal biotin on a linker: ado-ado)
Sequence (Q07157 181-274): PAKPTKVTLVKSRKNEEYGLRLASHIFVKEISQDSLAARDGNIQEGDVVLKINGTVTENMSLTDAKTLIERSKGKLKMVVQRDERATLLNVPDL

pKd | Binder
below the threshold | PEKVSNTTVV [IGSF5, Q9NSI5]

biological target: T6, MPP2, Q14168; assay: holdup assay; parameters: key: below the threshold = too weak to quantify, mostly under pKd 3.1 to 4; conditions: plain residues with an end cap or a label only (N-terminal biotin on a linker: ado-ado)

pKd | Binder
below the threshold | PEKVSNTTVV [IGSF5, Q9NSI5]

biological target: Inadl_8, Q8NI35; assay: holdup assay; parameters: key: below the threshold = too weak to quantify, mostly under pKd 3.1 to 4; conditions: plain residues with an end cap or a label only (N-terminal biotin on a linker: ado-ado)
Sequence (Q8NI35 1425-1530): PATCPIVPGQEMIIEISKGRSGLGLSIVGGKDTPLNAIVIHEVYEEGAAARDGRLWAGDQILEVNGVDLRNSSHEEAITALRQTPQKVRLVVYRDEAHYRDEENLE

pKd | Binder
below the threshold | PEKVSNTTVV [IGSF5, Q9NSI5]

biological target: FRMPD2_3, Q68DX3; assay: holdup assay; parameters: key: below the threshold = too weak to quantify, mostly under pKd 3.1 to 4; conditions: plain residues with an end cap or a label only (N-terminal biotin on a linker: ado-ado)
Sequence (Q68DX3 1073-1166): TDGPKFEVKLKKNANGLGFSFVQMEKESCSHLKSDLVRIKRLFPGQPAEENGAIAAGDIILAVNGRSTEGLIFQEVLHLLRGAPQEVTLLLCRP

pKd | Binder
below the threshold | PEKVSNTTVV [IGSF5, Q9NSI5]

biological target: IL16_3, Q14005; assay: holdup assay; parameters: key: below the threshold = too weak to quantify, mostly under pKd 3.1 to 4; conditions: plain residues with an end cap or a label only (N-terminal biotin on a linker: ado-ado)
Sequence (Q14005 1107-1207): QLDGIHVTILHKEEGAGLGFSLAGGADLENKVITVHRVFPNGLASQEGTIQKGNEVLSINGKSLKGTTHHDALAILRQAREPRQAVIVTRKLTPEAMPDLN

pKd | Binder
below the threshold | PEKVSNTTVV [IGSF5, Q9NSI5]

biological target: ARHGEF12, Q9NZN5-2; assay: holdup assay; parameters: key: below the threshold = too weak to quantify, mostly under pKd 3.1 to 4; conditions: plain residues with an end cap or a label only (N-terminal biotin on a linker: ado-ado)
Sequence (Q9NZN5 other isoform, or with tags, fused parts or gaps): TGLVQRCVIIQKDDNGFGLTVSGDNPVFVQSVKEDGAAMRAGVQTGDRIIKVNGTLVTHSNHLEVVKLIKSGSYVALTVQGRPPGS

pKd | Binder
4.21 | PEKVSNTTVV [IGSF5, Q9NSI5]

biological target: MAGI3_2, Q5TCQ9; assay: holdup assay; parameters: key: below the threshold = too weak to quantify, mostly under pKd 3.1 to 4; conditions: plain residues with an end cap or a label only (N-terminal biotin on a linker: ado-ado)
Sequence (Q5TCQ9 398-503): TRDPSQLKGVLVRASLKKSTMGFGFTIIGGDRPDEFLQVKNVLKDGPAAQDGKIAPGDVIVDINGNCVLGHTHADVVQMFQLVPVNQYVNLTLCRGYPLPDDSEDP

pKd | Binder
4.44 | PEKVSNTTVV [IGSF5, Q9NSI5]

biological target: Inadl_10, Q8NI35; assay: holdup assay; parameters: key: below the threshold = too weak to quantify, mostly under pKd 3.1 to 4; conditions: plain residues with an end cap or a label only (N-terminal biotin on a linker: ado-ado)
Sequence (Q8NI35 1673-1763): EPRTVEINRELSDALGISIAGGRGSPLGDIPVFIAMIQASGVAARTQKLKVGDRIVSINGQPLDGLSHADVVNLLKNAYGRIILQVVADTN

pKd | Binder
below the threshold | PEKVSNTTVV [IGSF5, Q9NSI5]

biological target: MAGI1_2, Q96QZ7; assay: holdup assay; parameters: key: below the threshold = too weak to quantify, mostly under pKd 3.1 to 4; conditions: plain residues with an end cap or a label only (N-terminal biotin on a linker: ado-ado)
Sequence (Q96QZ7 456-580): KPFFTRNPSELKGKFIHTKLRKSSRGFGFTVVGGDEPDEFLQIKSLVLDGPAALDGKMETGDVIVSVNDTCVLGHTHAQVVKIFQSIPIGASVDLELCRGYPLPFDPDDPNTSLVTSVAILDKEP

pKd | Binder
3.54 | PEKVSNTTVV [IGSF5, Q9NSI5]

biological target: Inadl_5, Q8NI35; assay: holdup assay; parameters: key: below the threshold = too weak to quantify, mostly under pKd 3.1 to 4; conditions: plain residues with an end cap or a label only (N-terminal biotin on a linker: ado-ado)
Sequence (Q8NI35 673-780): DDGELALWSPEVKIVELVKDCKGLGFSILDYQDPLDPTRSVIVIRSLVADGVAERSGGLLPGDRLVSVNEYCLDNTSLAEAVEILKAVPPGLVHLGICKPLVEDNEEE

pKd | Binder
below the threshold | PEKVSNTTVV [IGSF5, Q9NSI5]

biological target: LNX1_3, Q8TBB1; assay: holdup assay; parameters: key: below the threshold = too weak to quantify, mostly under pKd 3.1 to 4; conditions: plain residues with an end cap or a label only (N-terminal biotin on a linker: ado-ado)
Sequence (Q8TBB1 500-596): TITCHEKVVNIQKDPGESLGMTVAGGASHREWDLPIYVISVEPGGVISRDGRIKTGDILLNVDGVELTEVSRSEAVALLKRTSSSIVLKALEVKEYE

pKd | Binder
below the threshold | PEKVSNTTVV [IGSF5, Q9NSI5]

biological target: Inadl_9, Q8NI35; assay: holdup assay; parameters: key: below the threshold = too weak to quantify, mostly under pKd 3.1 to 4; conditions: plain residues with an end cap or a label only (N-terminal biotin on a linker: ado-ado)
Sequence (Q8NI35 1530-1615): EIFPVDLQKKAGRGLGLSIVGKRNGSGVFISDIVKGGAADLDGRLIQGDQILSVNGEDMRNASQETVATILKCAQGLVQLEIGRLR

pKd | Binder
below the threshold | PEKVSNTTVV [IGSF5, Q9NSI5]

biological target: T7, GRIP1_7, Q9Y3R0; assay: holdup assay; parameters: key: below the threshold = too weak to quantify, mostly under pKd 3.1 to 4; conditions: plain residues with an end cap or a label only (N-terminal biotin on a linker: ado-ado)

pKd | Binder
below the threshold | PEKVSNTTVV [IGSF5, Q9NSI5]

biological target: T8, PCLO, Q9Y6V0; assay: holdup assay; parameters: key: below the threshold = too weak to quantify, mostly under pKd 3.1 to 4; conditions: plain residues with an end cap or a label only (N-terminal biotin on a linker: ado-ado)

pKd | Binder
below the threshold | PEKVSNTTVV [IGSF5, Q9NSI5]

biological target: T9, DFNB31_2, Q9P202; assay: holdup assay; parameters: key: below the threshold = too weak to quantify, mostly under pKd 3.1 to 4; conditions: plain residues with an end cap or a label only (N-terminal biotin on a linker: ado-ado)

pKd | Binder
below the threshold | PEKVSNTTVV [IGSF5, Q9NSI5]

biological target: TJP2_1, Q9UDY2; assay: holdup assay; parameters: key: below the threshold = too weak to quantify, mostly under pKd 3.1 to 4; conditions: plain residues with an end cap or a label only (N-terminal biotin on a linker: ado-ado)
Sequence (Q9UDY2 24-128): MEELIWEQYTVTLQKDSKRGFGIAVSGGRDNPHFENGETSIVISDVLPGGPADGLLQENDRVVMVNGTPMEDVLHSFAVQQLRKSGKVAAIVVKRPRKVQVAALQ

pKd | Binder
below the threshold | PEKVSNTTVV [IGSF5, Q9NSI5]

biological target: T10, APBA2_2, Q99767; assay: holdup assay; parameters: key: below the threshold = too weak to quantify, mostly under pKd 3.1 to 4; conditions: plain residues with an end cap or a label only (N-terminal biotin on a linker: ado-ado)

pKd | Binder
below the threshold | PEKVSNTTVV [IGSF5, Q9NSI5]

biological target: T11, MPDZ_10, O75970; assay: holdup assay; parameters: key: below the threshold = too weak to quantify, mostly under pKd 3.1 to 4; conditions: plain residues with an end cap or a label only (N-terminal biotin on a linker: ado-ado)

pKd | Binder
below the threshold | PEKVSNTTVV [IGSF5, Q9NSI5]

biological target: T12, RADIL, Q96JH8; assay: holdup assay; parameters: key: below the threshold = too weak to quantify, mostly under pKd 3.1 to 4; conditions: plain residues with an end cap or a label only (N-terminal biotin on a linker: ado-ado)

pKd | Binder
4.3 | PEKVSNTTVV [IGSF5, Q9NSI5]
